From patent publication US20200223919A1 (CYTOMX THERAPEUTICS, published 2020)

T1: Peptide B, amino acid residues 565 to 583 of human CD166 (human)
T1 construct: Coated at 100 or 200 ng/well with 0.9 mg/mL BSA
T1 peptide: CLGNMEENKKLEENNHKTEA

T2: Peptide A, amino acid residues 550 to 569 of human CD166 (human)
T2 construct: Coated at 100 or 200 ng/well with 0.9 mg/mL BSA
T2 peptide: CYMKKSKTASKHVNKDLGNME

T3: human CD166 (human, UniProt Q13740 28-583)
T3 construct: whole, on cells; Endogenous protein detected by IHC on fixed, paraffin-embedded cells and tissues, and by Western blot of cell lysates; also called hCD166
T3 sequence (looked up): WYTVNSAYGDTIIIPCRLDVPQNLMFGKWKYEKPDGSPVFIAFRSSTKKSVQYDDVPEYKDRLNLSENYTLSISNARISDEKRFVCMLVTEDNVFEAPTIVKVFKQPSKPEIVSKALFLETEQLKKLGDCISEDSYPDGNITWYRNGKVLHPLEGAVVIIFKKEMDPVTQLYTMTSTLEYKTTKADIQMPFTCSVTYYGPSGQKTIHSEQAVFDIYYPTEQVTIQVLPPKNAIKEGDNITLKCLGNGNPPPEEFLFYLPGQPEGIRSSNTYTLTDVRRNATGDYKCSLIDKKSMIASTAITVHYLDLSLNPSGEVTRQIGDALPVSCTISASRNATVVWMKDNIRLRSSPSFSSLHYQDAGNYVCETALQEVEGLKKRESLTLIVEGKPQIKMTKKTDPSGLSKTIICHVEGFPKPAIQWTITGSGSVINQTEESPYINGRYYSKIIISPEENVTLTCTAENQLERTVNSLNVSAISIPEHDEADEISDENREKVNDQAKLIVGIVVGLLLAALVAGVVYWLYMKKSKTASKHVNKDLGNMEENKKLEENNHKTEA


Experiments:
[1] = target: T1, Peptide B, amino acid residues 565 to …; experiment: ELISA, 200 ng/well peptide with 0.9 mg/mL BSA; expanded hybridoma clone supernatant
Excerpt: (§1) B cells from each of Mouse #2 and Mouse #3 were fused in a combined manner to generate hybridomas in accordance with methods known in the art. Hybridomas were cloned and ˜1100 clone supernatants were screened against the each of the human CD166-derived peptides using a Direct EIA format using a goat anti-IgG gamma chain-specific secondary antibody coupled to horseradish peroxidase (HRP) (Millipore, Cat. No. AP503P. Following the initial screen, 136 clones were selected for a further confirmatory screen, of which forty (40) were selected for expansion. The expanded clones were assayed for mouse IgG levels using anti-mouse sensors in an Octet RED96 system (Pall ForteBio) and ELISA (200 ng/well of peptides A or B with 0.9 mg/mL BSA). Candidates included Ab1 (also referred to herein as “Example anti-CD166 ICD antibody 1”), Ab2 (also referred to herein as “Example anti-CD166 ICD antibody 2”), Ab3, Ab4, Ab5, Ab6, Ab7, and Ab8. Five candidates (Ab1, Ab2, Ab3, Ab4, and Ab5) shown below in Table 4 were selected.

[2] = target: T2, Peptide A, amino acid residues 550 to …; experiment: as above
Excerpt: as §1

[3] = target: T3, human CD166; experiment: IHC on FFPE HCC1806 cells, supernatant at 10 µg/mL IgG
Method: As shown in the exemplary IHC images of FIGS. 1-4, formalin-fixed paraffin-embedded (FFPE) human tumor cell lines (triple-negative breast cancer-derived cell line HCC1806 and breast ductal carcinoma-derived cell line BT-20) were prepared and blocked using standard protocols, and then incubated with the indicated hybridoma supernatents (Ab3, Ab6, Ab2, Ab1, Ab5, Ab7, Ab4, or Ab8 of the present disclosure) at 10 μg/mL IgG for 60 minutes are room temperature. As a control, FFPE samples were also incubated with ABCAM® EPR2759(2)/ab109215 anti-hCD166 rabbit monoclonal antibody at 5 μg/mL. Detection of bound primary antibody was performed by subsequent incubation with biotinylated-conjugated anti-mouse IgG antibody (for the hybridoma supernatents) or biotinylated-conjugated anti-rabbit IgG antibody (for the ABCAM® antibody), followed by addition of avidin-horseradish peroxidase (HRP) (Vectastain Elite ABC HRP Kit, Vector Laboratories) to form the avidin-biotin-HRP complex, followed by addition of a 3,3′-diaminobenzidine substrate (DAB Plus, Dako). Tissues were counterstained with Hematoxylin (Fisher Scientific).

A620 [1]	A620 [2]	binding result [3]	Binder
3.23 A620	0.162 A620	binds	Ab1 anti-hCD166 mouse monoclonal antibody (antibody, mouse IgG1, kappa, also called recombinant Ab1) heavy: EVQLQQSGAELVKPGASVKLSCTASGFNIKDYYMHWVKQRTEQGLEWIGKIDPENGETKYAPKFQGKATITADTSSSTAYLQLSSLTSEDTAVYYCAREGFMDYWGQGASVTVSSAKTTPPSVYPLAPGSAAQTNSMVTLGCLVKGYFPEPVTVTWNSGSLSSGVHTFPAVLQSDLYTLSSSVTVPSSTWPSQTVTCNVAHPASSTKVDKKIVPRDCGCKPCICTVPEVSSVFIFPPKPKDVLTITLTPKVTCVVVDISKDDPEVQFSWFVDDVEVHTAQTQPREEQFNSTFRSVSELPIMHQDWLNGKEFKCRVNSAAFPAPIEKTISKTKGRPKAPQVYTIPPPKEQMAKDKVSLTCMITDFFPEDITVEWQWNGQPAENYKNTQPIMDTDGSYFVYSKLNVQKSNWEAGNTFTCSVLHEGLHNHHTEKSLSHSPGK light: DVVMTQTPLSLPVSLGDQASISCRSSQSLVHSNGNTYLHWYLQKPGQSPKLLIYKVSNRFSGVPDRFSGSGSGTDFTLKISRVEAEDLGVYFCSQSTFVPLTFGAGTKLELKRADAAPTVSIFPPSSEQLTSGGASVVCFLNNFYPKDINVKWKIDGSERQNGVLNSWTDQDSKDSTYSMSSTLTLTKDEYERHNSYTCEATHKTSTSPIVKSFNRNEC
3.02 A620	0.067 A620	binds	Ab2 anti-hCD166 mouse monoclonal antibody (antibody, mouse IgG1, kappa, Tested as hybridoma supernatant and as antibody purified from hybridoma supernatant) heavy: EVQLQQSGAELVKPGASVKLSCTASGFNIKDYYMHWVRQRTEQGLEWIGKIDPEDGETKYAPKFQGKATITADTSSNTAYLQLSSLTSEDTAVYYCAREGFMDYWGQGTSVTVSSAKTTPPSVYPLAPGSAAQTNSMVTLGCLVKGYFPEPVTVTWNSGSLSSGVHTFPAVLQSDLYTLSSSVTVPSSTWPSQTVTCNVAHPASSTKVDKKIVPRDCGCKPCICTVPEVSSVFIFPPKPKDVLTITLTPKVTCVVVDISKDDPEVQFSWFVDDVEVHTAQTQPREEQFNSTFRSVSELPIMHQDWLNGKEFKCRVNSAAFPAPIEKTISKTKGRPKAPQVYTIPPPKEQMAKDKVSLTCMITDFFPEDITVEWQWNGQPAENYKNTQPIMDTDGSYFVYSKLNVQKSNWEAGNTFTCSVLHEGLHNHHTEKSLSHSPGK light: DNVMTQTPLSLSVSLGDQASISCRSSQSLVHSNGNTYLHWYLQKPGQSPKLLIYKVSNRFSGVPDRFSGSGSGTDFTLKISRVEAEDLGVYFCSQSTHVPLTFGAGTKLELKRADAAPTVSIFPPSSEQLTSGGASVVCFLNNFYPKDINVKWKIDGSERQNGVLNSWTDQDSKDSTYSMSSTLTLTKDEYERHNSYTCEATHKTSTSPIVKSFNRNEC
